Experimental data reported in patent US20100249184A1, “INDUCTION AND/OR MAINTENANCE OF TUMOR DORMANCY BY DISRUPTION OF UROKINASE PLASMINOGEN ACTIVATOR RECEPTOR-INTEGRIN INTERACTION” (MOUNT SINAI SCHOOL OF MEDICINE, priority 2007, published 2010).
Entries after “also recorded” stand apart in the source; their conditions may differ.

Key:
[1] = target: T1, purified α3β1-integrin (Homo sapiens, UniProt P05556+P26006); assay: Solid phase dot-ELISA with α3β1-integrin; type: binding; settings: α3β1-integrin 750 ng/ml, increasing concentrations of immobilized suPAR or peptide
T1 construct: purchased Chemicon International (Temecula, Calif.)
Protocol: FIGS. 1A-H show the interaction between α5β1-integrin and immobilized uPAR and uPAR-derived synthetic peptides through solid-phase dot-ELISA. […] Bound integrin was detected with anti-α5 integrin antibody followed by goat anti-rabbit IgG (H+L) HRP conjugated secondary antibody and developed with enhanced chemiluminescence (“ECL”). FIG. 1B is a graph showing that binding of integrin to suPAR is saturable. SuPAR (1.5 μg) was immobilized on nitrocellulose membrane in triplicates, incubated with 0, 0.1, 0.5, 1, 2, and 4 μg/ml of α5β1-integrin and tested for integrin binding as in FIG. 1A. The dots were scanned with NIH Image. Mean and SE are shown. […] Peptides representing regions located in each of the three uPAR-domains were immobilized, incubated with α5β1-integrin, and analyzed as in FIG. 1A. Only peptide 240-248 binds α5β1-integrin. FIG. 1D is a graph showing that peptide 240-248 inhibits integrin binding to suPAR. The α5β1-integrin (750 ng/ml) was pre-incubated for 15 min at room temperature with 100 fold molar excess of 240-248 or 17-24 peptides, or with no peptide (Control) and the mixtures were applied to immobilized suPAR (1.5 μg), 2 dots per mixture, and developed as in FIG. 1A. […] Bound integrins were detected with the appropriate previously titrated antibodies followed by goat anti-rabbit IgG (H+L) HRP conjugated secondary antibody and detection with ECL. […]

[2] = target: T2, α5β1-integrin/uPAR complex (Homo sapiens, UniProt P05556+P08648); assay: Disruption of preformed uPAR/α5β1-integrin complex (co-immunoprecipitation); type: biochemical; settings: cell lysates incubated with 20 μM peptide, 20 min at 4° C., pull-down with anti-α5β1 (HA5)
T2 construct: endogenous in cells; host or cells: T-HEp3 (human epidermoid carcinoma) cell lysate
Protocol: FIGS. 5A-B show the physical interaction between uPAR and α5β1-integrin. […] D-HEp3 cells were transfected with vector (pcDNA3.1) alone or with constructs expressing uPAR^wt or uPAR^S245A and after 48 hrs the cells were surface biotinylated and lysed as described in the Examples. Half of each lysate (0.8 mg of protein) was immunoprecipitated with 5 μg monoclonal anti-uPAR(R3) antibody and half with 5 μg monoclonal anti-α5β1-integrin (HA5) antibody. Isotype-matched IgG served as negative control. The immunoprecipitates were separated on an SDS-PAGE and the bands were detected with streptavidin-HRP conjugate and ECL. […] The numbers represent uPAR precipitated by anti-α5β1 antibody as percent of total uPAR. The experiment was repeated 5 times using the same and additional anti-integrin and anti-uPAR antibodies with essentially similar results. FIG. 5B is a graph showing the disruption of uPAR and α5β1-integrin complex with peptides 240-248 and S245A. T-HEp3 cells were surface biotinylated and lysed as described in the Examples. The lysate was precleared with isotype-matched IgG and aliquots containing 0.8 mg protein were incubated with peptides 240-248 and S245A (5 μM and 20 μM) or without peptides (Control, C) for 20 min at 4° C. followed by IP with 5 μg of monoclonal anti-α5β1-integrin (HAS) antibody for 90 min. The immunoprecipitates were analyzed as in FIG. 5A and scanned with NIH Image. […]

T1 sequence (P26006 33-872 limits assumed): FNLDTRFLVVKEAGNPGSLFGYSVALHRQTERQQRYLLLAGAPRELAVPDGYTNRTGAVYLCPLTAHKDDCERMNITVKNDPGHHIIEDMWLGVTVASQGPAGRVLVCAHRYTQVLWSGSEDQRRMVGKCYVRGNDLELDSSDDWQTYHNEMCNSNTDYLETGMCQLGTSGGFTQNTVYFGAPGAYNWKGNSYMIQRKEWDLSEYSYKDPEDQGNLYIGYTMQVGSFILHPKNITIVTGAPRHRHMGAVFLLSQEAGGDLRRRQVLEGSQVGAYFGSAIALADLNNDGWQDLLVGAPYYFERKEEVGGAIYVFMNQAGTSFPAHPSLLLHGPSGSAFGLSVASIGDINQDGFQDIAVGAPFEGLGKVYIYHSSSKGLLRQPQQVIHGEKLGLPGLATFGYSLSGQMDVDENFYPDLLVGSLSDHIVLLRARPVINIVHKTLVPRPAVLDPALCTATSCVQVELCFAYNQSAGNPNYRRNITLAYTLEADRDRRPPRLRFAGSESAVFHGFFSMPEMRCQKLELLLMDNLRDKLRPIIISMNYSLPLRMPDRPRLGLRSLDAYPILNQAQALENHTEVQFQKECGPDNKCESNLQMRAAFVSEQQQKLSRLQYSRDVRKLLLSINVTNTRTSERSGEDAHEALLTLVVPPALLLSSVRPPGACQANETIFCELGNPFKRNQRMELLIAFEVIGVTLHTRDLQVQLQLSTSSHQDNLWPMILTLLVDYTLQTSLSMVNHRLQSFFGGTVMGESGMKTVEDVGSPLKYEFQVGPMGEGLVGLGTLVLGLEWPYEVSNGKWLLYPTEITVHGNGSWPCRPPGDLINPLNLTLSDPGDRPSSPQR
T1 sequence (P26006 873-1051 limits assumed): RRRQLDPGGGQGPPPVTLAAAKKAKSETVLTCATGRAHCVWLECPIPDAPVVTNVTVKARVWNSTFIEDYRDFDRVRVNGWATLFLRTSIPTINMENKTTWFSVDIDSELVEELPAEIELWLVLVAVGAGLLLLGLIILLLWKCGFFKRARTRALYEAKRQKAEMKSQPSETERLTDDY
T1 sequence (P05556 21-798): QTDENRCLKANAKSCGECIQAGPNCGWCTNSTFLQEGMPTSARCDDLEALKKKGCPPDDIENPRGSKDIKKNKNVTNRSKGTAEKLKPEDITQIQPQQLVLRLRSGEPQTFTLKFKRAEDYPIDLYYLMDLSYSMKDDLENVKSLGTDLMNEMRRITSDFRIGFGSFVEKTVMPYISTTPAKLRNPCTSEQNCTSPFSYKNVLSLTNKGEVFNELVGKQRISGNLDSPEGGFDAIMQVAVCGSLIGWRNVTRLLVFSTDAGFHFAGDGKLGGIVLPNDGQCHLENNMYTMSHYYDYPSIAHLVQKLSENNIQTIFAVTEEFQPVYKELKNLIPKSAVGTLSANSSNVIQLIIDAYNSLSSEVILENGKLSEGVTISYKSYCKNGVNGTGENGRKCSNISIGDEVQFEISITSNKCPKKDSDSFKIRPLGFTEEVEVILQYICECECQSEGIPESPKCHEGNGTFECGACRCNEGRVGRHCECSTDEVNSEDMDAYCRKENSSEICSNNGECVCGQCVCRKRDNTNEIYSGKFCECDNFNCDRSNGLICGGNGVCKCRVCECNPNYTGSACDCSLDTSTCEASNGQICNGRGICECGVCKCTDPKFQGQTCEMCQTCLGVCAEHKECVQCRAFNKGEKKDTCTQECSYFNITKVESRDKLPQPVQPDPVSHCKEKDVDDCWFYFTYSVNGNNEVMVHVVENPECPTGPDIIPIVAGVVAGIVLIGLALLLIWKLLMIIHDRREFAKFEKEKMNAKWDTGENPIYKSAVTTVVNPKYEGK
T2 sequence (P08648 42-894 limits assumed): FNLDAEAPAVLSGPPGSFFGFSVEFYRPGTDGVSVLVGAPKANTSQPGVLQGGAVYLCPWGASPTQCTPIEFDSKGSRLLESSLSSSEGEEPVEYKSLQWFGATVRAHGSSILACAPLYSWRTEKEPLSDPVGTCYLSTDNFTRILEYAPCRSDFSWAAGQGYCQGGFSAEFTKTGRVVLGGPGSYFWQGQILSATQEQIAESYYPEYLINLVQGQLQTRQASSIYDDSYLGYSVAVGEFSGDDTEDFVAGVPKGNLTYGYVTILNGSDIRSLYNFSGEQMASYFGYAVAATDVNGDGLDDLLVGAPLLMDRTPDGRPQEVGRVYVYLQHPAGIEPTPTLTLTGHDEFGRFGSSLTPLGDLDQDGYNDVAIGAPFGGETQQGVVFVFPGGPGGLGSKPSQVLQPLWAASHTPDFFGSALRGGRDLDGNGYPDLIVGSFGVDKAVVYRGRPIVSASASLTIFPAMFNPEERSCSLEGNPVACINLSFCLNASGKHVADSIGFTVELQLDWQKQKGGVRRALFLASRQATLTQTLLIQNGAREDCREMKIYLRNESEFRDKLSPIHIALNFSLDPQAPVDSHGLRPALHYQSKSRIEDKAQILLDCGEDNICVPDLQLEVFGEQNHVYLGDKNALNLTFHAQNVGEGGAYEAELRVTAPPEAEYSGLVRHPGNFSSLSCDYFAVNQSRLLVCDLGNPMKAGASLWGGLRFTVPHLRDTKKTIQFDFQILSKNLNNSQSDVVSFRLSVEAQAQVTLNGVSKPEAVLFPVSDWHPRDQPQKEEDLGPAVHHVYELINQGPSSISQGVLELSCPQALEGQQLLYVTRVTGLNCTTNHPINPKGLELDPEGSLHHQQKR
T2 sequence (P08648 895-1049 limits assumed): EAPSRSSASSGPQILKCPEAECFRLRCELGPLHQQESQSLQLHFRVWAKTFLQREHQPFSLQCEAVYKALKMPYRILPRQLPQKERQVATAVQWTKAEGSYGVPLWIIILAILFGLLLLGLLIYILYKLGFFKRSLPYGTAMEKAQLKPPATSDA
T2 sequence (P05556 21-798): as the sequence (P05556 21-798) above

peptide 240-248: synthetic uPAR-derived peptide, domain III residues 240-248: GCATASMCQ (SEQ ID NO:9)
α3β1-integrin binding compared to α5β1-integrin [1]: dots of much lesser intensity; also recorded: bound only weakly
disruption of preformed uPAR/integrin complex [2]: disrupted
